One protein from publication PMC4078364, “Complete sucrose hydrolysis by heat-killed recombinant Pichia pastoris cells entrapped in calcium alginate” (Microbial Cell Factories, 2014) can be followed below.

Substrate in the data set: OC[C@H]1O[C@@](CO)(O[C@H]2O[C@H](CO)[C@@H](O)[C@H](O)[C@H]2O)[C@@H](O)[C@@H]1O
The data set is described as follows: DNSA reducing sugar assay, initial rates, Lineweaver-Burk. Particulars: free (non-immobilized) heat-killed P. pastoris cells with periplasmic enzyme, 10-200 mM sucrose, 50 mM sodium acetate pH 5.5, 60 °C, cell-wall diffusion barrier. The class given is cell-based, Thermotoga maritima.

B1: BfrA (Thermotoga maritima β-fructosidase) (Thermotoga maritima MSB8) (protein)
chain: MFKPNYHFFPITGWMNDPNGLIFWKGKYHMFYQYNPRKPEWGNICWGHAVSDDLVHWRHLPVALYPDDETHGVFSGSAVEKDGKMFLVYTYYRDPTHNKGEKETQCVAMSENGLDFVKYDGNPVISKPPEEGTHAFRDPKVNRSNGEWRMVLGSGKDEKIGRVLLYTSDDLFHWKYEGVIFEDETTKEIECPDLVRIGEKDILIYSITSTNSVLFSMGELKEGKLNVEKRGLLDHGTDFYAAQTFFGTDRVVVIGWLQSWLRTGLYPTKREGWNGVMSLPRELYVENNELKVKPVDELLALRKRKVFETAKSGTFLLDVKENSYEIVCEFSGEIELRMGNESEEVVITKSRDELIVDTTRSGVSGGEVRKSTVEDEATNRIRAFLDSCSVEFFFNDSIAFSFRIHPENVYNILSVKSNQVKLEVFELENIWL
notes: secreted to periplasm of Pichia pastoris PpBfrA(4x); N-glycosylated, 58 and 53 kDa (51 kDa deglycosylated); assayed in heat-killed whole cells
Usually Km stands for the substrate concentration at which the rate is half of its maximum. As to B1, the Km amounted to 99 mM.
